Test results: the supplement of paper PMC10065799, “High-throughput profiling of sequence recognition by tyrosine kinases and SH2 domains using bacterial peptide display” (eLife, 2023)

Legend:
Fyn = Fyn (UniProt P06241); experiment: phosphorylation enrichment, bacterial display (enrichment ratio); higher = better substrate or ligand; peptides without Tyr show the background
FGFR3 = FGFR3 (UniProt P22607); experiment: as above
c-Abl (mouse) = experiment: as above
Jak2 = Jak2 (UniProt O60674); experiment: as above
Hck = Hck (UniProt P08631); experiment: as above
Chain of Hck (P08631 whole entry, looked up): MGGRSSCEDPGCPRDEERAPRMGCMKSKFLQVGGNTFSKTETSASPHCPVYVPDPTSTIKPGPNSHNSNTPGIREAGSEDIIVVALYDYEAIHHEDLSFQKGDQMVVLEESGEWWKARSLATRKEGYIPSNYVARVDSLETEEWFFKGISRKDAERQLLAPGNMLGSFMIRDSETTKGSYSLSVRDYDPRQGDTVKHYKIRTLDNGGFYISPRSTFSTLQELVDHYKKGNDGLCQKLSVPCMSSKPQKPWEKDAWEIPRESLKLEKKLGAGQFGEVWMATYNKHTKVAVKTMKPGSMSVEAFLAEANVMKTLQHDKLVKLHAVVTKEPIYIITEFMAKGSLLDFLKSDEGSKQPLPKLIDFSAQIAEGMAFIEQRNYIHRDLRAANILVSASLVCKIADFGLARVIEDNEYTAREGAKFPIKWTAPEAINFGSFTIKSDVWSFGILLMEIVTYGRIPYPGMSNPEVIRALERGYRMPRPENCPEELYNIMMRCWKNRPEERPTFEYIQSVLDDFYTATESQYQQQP

AncSZ = experiment: as above
EPHB2 = EPHB2 (UniProt P29323); experiment: as above
Chain of EPHB2 (P29323 whole entry, looked up): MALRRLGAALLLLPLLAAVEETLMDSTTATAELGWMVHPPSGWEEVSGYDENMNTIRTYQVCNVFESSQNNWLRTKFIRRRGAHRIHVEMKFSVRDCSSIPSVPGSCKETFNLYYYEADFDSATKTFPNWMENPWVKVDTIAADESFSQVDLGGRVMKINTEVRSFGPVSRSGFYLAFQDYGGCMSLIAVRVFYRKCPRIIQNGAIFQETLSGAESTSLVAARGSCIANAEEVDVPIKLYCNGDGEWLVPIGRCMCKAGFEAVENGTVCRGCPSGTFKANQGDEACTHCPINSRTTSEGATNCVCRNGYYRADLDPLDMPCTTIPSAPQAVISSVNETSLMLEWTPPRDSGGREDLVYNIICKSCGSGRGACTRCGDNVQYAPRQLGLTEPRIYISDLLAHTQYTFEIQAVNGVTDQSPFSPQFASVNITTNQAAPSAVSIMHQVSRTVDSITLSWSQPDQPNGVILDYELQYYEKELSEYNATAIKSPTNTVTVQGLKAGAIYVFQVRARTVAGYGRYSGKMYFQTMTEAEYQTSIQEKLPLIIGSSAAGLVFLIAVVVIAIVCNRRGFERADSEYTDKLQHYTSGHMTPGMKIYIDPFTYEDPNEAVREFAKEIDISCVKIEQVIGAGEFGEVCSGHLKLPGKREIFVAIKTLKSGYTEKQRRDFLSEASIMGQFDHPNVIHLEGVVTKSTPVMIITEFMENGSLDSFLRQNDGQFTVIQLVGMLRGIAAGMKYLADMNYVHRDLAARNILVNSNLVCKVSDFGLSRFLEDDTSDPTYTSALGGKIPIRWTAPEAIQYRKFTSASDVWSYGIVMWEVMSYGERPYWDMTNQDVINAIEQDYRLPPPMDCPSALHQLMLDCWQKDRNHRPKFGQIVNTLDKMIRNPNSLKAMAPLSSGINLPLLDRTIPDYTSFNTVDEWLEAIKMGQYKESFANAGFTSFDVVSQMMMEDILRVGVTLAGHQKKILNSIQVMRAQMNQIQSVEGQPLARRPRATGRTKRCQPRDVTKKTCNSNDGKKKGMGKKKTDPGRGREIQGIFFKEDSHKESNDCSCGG

c-Src = experiment: as above
FGFR1 = FGFR1 (UniProt P11362); experiment: as above
EPHB1 = EPHB1 (UniProt P54762); experiment: as above
Chain of EPHB1 (P54762 whole entry, looked up): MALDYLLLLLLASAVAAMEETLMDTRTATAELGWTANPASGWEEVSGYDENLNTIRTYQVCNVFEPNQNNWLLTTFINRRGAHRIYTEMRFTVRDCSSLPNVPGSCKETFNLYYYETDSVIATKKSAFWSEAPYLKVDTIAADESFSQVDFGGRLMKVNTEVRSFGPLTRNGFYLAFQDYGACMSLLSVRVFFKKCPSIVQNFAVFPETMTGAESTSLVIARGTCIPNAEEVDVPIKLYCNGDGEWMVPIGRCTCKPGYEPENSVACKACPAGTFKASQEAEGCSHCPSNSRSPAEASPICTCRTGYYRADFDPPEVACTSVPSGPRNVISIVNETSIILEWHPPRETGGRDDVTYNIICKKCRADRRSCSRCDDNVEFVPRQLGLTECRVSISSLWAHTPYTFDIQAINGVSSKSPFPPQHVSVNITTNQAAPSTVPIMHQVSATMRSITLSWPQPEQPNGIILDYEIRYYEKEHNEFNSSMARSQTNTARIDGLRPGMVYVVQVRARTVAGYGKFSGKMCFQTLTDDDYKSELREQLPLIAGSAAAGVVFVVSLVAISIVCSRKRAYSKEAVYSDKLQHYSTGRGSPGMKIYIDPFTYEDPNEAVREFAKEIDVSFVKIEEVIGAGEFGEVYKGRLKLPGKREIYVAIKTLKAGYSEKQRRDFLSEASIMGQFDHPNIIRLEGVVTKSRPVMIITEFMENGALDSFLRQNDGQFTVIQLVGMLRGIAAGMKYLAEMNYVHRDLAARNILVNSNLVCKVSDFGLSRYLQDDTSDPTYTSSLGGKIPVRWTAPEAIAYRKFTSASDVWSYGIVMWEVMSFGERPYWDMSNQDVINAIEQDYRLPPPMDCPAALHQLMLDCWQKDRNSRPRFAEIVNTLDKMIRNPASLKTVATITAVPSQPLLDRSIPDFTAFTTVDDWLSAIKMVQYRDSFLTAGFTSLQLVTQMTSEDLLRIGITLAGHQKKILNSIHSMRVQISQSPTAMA

Fes = Fes (UniProt P07332); experiment: as above
Fer (mouse) = experiment: as above
MERTK = MERTK (UniProt Q12866); experiment: as above
Chain of MERTK (Q12866 whole entry, looked up): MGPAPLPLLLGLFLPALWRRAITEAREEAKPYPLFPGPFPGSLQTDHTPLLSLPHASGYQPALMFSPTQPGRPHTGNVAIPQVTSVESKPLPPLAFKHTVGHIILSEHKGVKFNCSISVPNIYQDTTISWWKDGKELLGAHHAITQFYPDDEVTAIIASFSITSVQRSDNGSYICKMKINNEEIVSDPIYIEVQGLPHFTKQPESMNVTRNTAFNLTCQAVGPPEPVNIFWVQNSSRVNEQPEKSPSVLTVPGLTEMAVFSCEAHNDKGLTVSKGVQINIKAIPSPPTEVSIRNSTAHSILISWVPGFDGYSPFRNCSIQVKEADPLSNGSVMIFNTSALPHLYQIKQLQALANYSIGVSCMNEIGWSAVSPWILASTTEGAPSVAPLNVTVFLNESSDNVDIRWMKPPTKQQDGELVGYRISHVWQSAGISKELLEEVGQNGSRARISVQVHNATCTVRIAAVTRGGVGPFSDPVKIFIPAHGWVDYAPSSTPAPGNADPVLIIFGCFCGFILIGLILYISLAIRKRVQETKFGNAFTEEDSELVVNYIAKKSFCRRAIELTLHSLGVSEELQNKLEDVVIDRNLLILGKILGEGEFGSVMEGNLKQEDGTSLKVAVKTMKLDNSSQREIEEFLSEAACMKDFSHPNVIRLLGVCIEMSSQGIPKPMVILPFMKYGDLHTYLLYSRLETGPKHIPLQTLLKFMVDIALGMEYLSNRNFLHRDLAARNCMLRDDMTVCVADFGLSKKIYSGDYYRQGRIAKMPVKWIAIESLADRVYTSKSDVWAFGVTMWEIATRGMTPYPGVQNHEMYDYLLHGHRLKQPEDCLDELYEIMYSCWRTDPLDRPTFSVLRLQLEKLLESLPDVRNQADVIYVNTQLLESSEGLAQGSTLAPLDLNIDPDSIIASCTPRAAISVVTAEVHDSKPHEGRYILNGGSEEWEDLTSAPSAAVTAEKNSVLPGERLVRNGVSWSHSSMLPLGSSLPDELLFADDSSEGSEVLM

SHP2-C SH2 = experiment: SH2 binding enrichment of the phosphorylated peptide, bacterial display (enrichment ratio); higher = better substrate or ligand; peptides without Tyr show the background
c-Src SH2 = experiment: as above
Grb2 SH2 = Grb2 SH2 (UniProt P62993); experiment: as above
Chain of Grb2 SH2 (P62993 whole entry, looked up, the tested form may be a part): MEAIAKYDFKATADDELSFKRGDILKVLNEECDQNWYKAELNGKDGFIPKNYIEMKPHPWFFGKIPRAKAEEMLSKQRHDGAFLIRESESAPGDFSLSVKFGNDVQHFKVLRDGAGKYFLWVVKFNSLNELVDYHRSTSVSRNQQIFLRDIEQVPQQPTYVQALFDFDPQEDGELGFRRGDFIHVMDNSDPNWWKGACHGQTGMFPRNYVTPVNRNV
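For SH2 binding enrichment of the phosphorylated peptide, bacterial display in this document: peptide library displayed on the E. coli surface as eCPX fusions, selected cells deep-sequenced, score is each peptide's frequency after selection divided by its frequency in the input.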
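For phosphorylation enrichment, bacterial display in this document: 11-residue human phosphosite peptides and single-mutation variants displayed on the E. coli surface, counted by deep sequencing, each peptide's frequency after selection divided by its frequency in the unselected input library; frequency after pTyr selection over input frequency; kinase dosed for 20-30% of maximal phosphorylation in three min.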

Chain of FGFR3 (P22607 whole entry, looked up): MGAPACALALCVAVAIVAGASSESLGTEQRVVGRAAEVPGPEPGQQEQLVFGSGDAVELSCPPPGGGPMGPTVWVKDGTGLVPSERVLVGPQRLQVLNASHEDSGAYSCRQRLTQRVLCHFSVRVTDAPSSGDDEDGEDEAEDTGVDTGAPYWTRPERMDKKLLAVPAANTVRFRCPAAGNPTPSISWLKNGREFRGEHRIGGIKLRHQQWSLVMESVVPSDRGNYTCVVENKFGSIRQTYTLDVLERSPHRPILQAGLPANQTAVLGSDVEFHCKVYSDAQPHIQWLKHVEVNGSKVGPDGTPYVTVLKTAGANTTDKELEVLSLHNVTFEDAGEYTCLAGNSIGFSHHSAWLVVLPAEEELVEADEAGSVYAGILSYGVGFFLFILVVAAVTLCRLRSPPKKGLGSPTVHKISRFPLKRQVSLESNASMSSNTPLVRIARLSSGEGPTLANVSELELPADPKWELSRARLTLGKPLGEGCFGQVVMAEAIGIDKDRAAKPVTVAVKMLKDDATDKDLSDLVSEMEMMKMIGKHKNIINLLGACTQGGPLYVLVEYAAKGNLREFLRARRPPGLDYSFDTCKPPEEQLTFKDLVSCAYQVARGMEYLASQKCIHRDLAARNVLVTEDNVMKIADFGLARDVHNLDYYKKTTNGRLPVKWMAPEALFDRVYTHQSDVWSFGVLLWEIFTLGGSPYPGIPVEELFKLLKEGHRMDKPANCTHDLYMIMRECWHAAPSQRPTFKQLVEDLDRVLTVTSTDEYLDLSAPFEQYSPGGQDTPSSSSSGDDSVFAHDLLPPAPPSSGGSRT

Sequence	phosphorylation enrichment (Fyn)	phosphorylation enrichment (FGFR3)	phosphorylation enrichment (c-Abl (mouse))	phosphorylation enrichment (Jak2)	phosphorylation enrichment (Hck)	phosphorylation enrichment (AncSZ)	phosphorylation enrichment (EPHB2)	phosphorylation enrichment (c-Src)	phosphorylation enrichment (FGFR1)	phosphorylation enrichment (EPHB1)	phosphorylation enrichment (Fes)	phosphorylation enrichment (Fer (mouse))	phosphorylation enrichment (MERTK)	SH2 binding enrichment (SHP2-C SH2)	SH2 binding enrichment (c-Src SH2)	SH2 binding enrichment (Grb2 SH2)
EKLIQYCQSKS [AKR1B1_Y199_G204S]	0.475	0.642	0.638	0.562	0.46	0.679	0.588	0.448	0.459	0.584	0.807	0.476	0.395	0.755	0.609	0.964
VYAANYYKLLG [ROR2_Y645_D644N]	1.28	5.33	1.23	3.19	1.76	0.779	2.04	1.18	7.46	3.1	1.11	0.469	5.56	0.555	0.506	0.699
IDSTPYGQWYE [RPS8_Y109_R110G]	2.59	0.701	0.719	0.984	1.37	1.12	0.612	3.33	0.741	0.596	1.18	1.13	0.526	0.607	0.849	0.703
YEEDSYVERSQ [RET_Y905_K907E]	0.519	0.961	0.668	1.06	0.498	1.27	0.722	0.41	0.558	0.667	1.31	0.572	0.504	0.75	1.48	0.726
PINEPYGDDMD [JUP_Y693]	1.03	1.34	1.25	1.89	0.981	2.44	0.985	0.858	1.15	0.944	1.75	0.837	0.919	1.05	0.601	1.04
PADRAYSWFQH [NDST1_Y711_YF]	0.833	1.14	0.645	1.03	0.466	1.14	0.67	0.868	1.84	0.543	1.43	17.8	4.22	0.572	0.976	0.949
PTTKTYFLHFD [HBA1_Y43_P45L]	0.813	2.62	1.51	1.98	0.816	1.66	1.14	0.695	3.23	1.34	1.79	0.532	0.844	1.35	0.985	1.36
RHPLDYLRQFP [NARS2_Y138_E137D_YF]	0.511	0.449	0.753	0.78	0.498	0.719	0.583	0.609	0.429	0.458	0.74	0.349	0.56	0.746	0.519	1.05
ILLAGYLVMVI [SLC28A3_Y113]	0.572	0.783	0.748	1.06	0.525	1.35	0.652	0.442	0.58	0.681	1.38	0.613	0.498	0.781	0.502	0.729
HIKHNYECLVF [XRCC5_Y416_YF]	0.709	1.09	0.4	0.547	0.821	1.31	1.44	0.53	0.796	1.86	1.09	0.665	0.382	0.715	4.51	0.85
GYRVYYTPDSR [PTPRF_Y451]	1.24	0.675	1.89	2.29	2.69	0.794	2.15	1.54	0.73	2.35	0.768	0.477	5.3	0.977	2.77	0.955
LHQSTYQCFDV [SLC7A14_Y693_R695C_YF]	3.33	1.11	1.05	1.14	1.42	1.25	0.896	5.09	1.14	2.34	1.25	2.23	2.26	0.56	0.455	0.688
WVFNHYRCIIW [BRCA2_Y2624_W2626C_YF]	0.482	0.956	1.04	1.41	0.574	1.28	0.644	0.497	0.498	0.885	1.67	0.589	0.538	0.755	0.588	0.82
TLNHQYDFTFD [CSNK1A1_Y292_YF]	0.507	0.653	0.705	0.989	0.495	1.22	0.543	0.485	0.57	0.553	1.07	0.543	0.6	0.701	8.5	0.844
LLKMMYLMLDN [STAT1_Y203_K201M]	0.584	0.902	1.07	0.991	0.644	1.08	0.693	0.611	0.874	0.946	1.51	0.603	0.597	1.39	1.44	1.63
SGSFRYGSSFE [SELE_Y390_C394F]	0.526	0.528	0.489	0.629	0.389	0.692	0.438	0.425	0.419	0.463	0.686	0.484	0.426	0.52	0.564	0.627
GLAKGYIDPET [CSNK1G2_Y195_E194G]	0.558	0.48	0.454	0.694	0.513	1.04	0.588	0.554	0.476	0.509	0.795	0.482	0.472	0.922	0.5	0.823
